A word on the Kd: it is a measure of binding affinity in units of concentration. Read a high Kd as lower affinity. The term IC50 denotes the concentration needed to halve the response being measured. High values mean weaker potency in that assay, low ones greater potency in that assay.

The experiment deals with T1, FITC-casein.
T1 sequence (P02666 16-224, species assumed, looked up): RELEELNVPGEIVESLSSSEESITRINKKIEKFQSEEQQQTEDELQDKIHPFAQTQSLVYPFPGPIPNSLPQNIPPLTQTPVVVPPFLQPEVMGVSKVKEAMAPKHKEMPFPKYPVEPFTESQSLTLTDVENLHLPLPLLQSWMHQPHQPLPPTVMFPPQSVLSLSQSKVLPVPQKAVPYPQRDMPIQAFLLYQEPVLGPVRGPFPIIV
The experiment is described as follows: fluorescence polarisation.

Sequence of Ydj1 (P25491 whole entry): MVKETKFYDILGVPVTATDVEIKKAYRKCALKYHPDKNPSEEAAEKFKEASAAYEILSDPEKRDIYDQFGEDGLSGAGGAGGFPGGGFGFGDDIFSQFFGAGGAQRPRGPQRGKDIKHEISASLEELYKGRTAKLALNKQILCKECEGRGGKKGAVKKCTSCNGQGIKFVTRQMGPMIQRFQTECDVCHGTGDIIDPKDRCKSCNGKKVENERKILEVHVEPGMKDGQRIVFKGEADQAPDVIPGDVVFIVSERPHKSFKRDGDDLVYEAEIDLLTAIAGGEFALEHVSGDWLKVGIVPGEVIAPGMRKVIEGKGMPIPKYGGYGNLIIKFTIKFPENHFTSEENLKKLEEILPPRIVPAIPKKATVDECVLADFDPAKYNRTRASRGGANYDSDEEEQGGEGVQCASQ
Sequence of Hsp104 (P31539 whole entry): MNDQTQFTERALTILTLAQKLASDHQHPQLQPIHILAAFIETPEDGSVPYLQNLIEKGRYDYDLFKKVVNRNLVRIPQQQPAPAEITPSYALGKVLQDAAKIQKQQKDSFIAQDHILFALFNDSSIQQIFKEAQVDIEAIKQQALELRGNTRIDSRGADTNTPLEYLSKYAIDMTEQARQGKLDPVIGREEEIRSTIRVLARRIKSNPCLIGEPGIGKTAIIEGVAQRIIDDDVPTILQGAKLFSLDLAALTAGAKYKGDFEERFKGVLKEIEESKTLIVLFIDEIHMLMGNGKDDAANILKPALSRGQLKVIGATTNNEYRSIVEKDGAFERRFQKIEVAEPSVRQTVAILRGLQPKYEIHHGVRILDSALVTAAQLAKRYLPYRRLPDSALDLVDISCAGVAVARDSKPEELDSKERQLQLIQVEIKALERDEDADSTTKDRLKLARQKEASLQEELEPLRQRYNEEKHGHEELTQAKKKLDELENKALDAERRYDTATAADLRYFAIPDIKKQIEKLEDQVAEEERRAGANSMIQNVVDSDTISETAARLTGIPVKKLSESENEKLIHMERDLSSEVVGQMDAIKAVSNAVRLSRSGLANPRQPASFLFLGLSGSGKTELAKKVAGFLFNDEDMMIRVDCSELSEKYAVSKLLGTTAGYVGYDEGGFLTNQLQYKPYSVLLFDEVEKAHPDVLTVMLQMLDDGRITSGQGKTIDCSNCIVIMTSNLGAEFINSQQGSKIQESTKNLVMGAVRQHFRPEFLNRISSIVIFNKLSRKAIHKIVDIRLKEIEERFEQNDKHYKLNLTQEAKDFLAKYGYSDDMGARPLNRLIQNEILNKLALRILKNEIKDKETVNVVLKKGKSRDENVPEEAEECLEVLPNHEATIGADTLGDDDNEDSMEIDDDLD

For the substance “Hsp104 (from UniProt P31539 1-908) (natural protein)”, the dissociation constant (Kd) came to 0.2 µM. “Ydj1 (from UniProt P25491 1-409) (natural protein)” came in with an IC50 of 20 to 40 µM.

Values taken from article doi:10.1101/2024.04.26.591398.
